Data as given in publication PMC4793259 (Journal of Extracellular Vesicles, 2016).

Biological target: epidermal growth factor receptor (Homo sapiens (A431, HeLa cells), UniProt P00533)
Experiment: flow cytometry on cells

binding result: no binding (tested: 5 µg/mL)
B1: GPI-anchored HA-tagged R2 nanobody (DAF-R2) displayed on Neuro2A extracellular vesicles (VHH)
VHH: QVQLQESGGGLVQAGGSLRLSCAASGRAASGHGHYGMGWFRQVPGKEREFVAAIRWSGKETWYKDSVKGRFTISRDNAKTTVYLQMNSLKGEDTAVYYCAARPVRVADISLPVGFDYWGQGTQVTVSS
